Measured values published in the supplement of paper PMC7125110.
± gives the standard error. Fewer inactive variants are shown than the library holds.

B1: glmS ribozyme (parent)
chain: AUAAAAGCGCCAGAACUACAGAAAUGUAGUUGACGAGGAGGAGGUUUAUCGAAUUUUCGGCGGAUGCCUCCAAA

Columns and labels:
Details in all cases: with glucosamine-6-phosphate
glucosamine-6-phosphate [1] = variants of: B1; experiment: self-cleavage kobs at 40 uM GlcN6P; higher = faster cleavage; RNA array
How it was run: (§1)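 Barcoded ribozyme variants on sequenced MiSeq chips were transcribed in situ by E. coli RNA polymerase and followed at 37 °C through a hybridised Cy3 probe. Glucosamine-6-phosphate at 40 μM to 10 mM in HEPES/KCl/Mg(OAc)2 buffer was flowed in, and tiles were imaged over ~14 h. Signals were normalised to baseline and to non-cleaving reference variants, and per-tile medians were fit to one- or two-exponential decays to give kobs. Weighted Michaelis–Menten fits across concentrations gave kcat and KM.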

glucosamine-6-phosphate [2] = variants of: B1; experiment: self-cleavage kobs at 10000 uM GlcN6P; higher = faster cleavage; RNA array
How it was run: as §1

glucosamine-6-phosphate [3] = variants of: B1; experiment: self-cleavage kobs at 640 uM GlcN6P; higher = faster cleavage; RNA array
How it was run: as §1

glucosamine-6-phosphate [4] = variants of: B1; experiment: self-cleavage kobs at 2500 uM GlcN6P; higher = faster cleavage; RNA array
How it was run: as §1

glucosamine-6-phosphate [5] = variants of: B1; experiment: self-cleavage kobs at 160 uM GlcN6P; higher = faster cleavage; RNA array
How it was run: as §1

C16U A33U G38A G40A was tested, and the “self-cleavage kobs at 40 uM GlcN6P” value (glucosamine-6-phosphate [1]) was less than 1e-05 s⁻¹ and the “self-cleavage kobs at 10000 uM GlcN6P” value (glucosamine-6-phosphate [2]) was less than 1e-05 s⁻¹.

G9A U55C C71A was tested, and the “self-cleavage kobs at 40 uM GlcN6P” value (glucosamine-6-phosphate [1]) was less than 1e-05 s⁻¹, the “self-cleavage kobs at 640 uM GlcN6P” value (glucosamine-6-phosphate [3]) was less than 1e-05 s⁻¹ and the “self-cleavage kobs at 2500 uM GlcN6P” value (glucosamine-6-phosphate [4]) was less than 1e-05 s⁻¹.

With G7U G29C G43U G51A the “self-cleavage kobs at 40 uM GlcN6P” value (glucosamine-6-phosphate [1]) was less than 1e-05 s⁻¹ and the “self-cleavage kobs at 10000 uM GlcN6P” value (glucosamine-6-phosphate [2]) was less than 1e-05 s⁻¹.

In the case of A6U G35C G51C U65G, the “self-cleavage kobs at 40 uM GlcN6P” value (glucosamine-6-phosphate [1]) is reported as less than 1e-05 s⁻¹.

With C10G U65G the “self-cleavage kobs at 40 uM GlcN6P” value (glucosamine-6-phosphate [1]) was less than 1e-05 s⁻¹, the “self-cleavage kobs at 160 uM GlcN6P” value (glucosamine-6-phosphate [5]) was less than 1e-05 s⁻¹ and the “self-cleavage kobs at 640 uM GlcN6P” value (glucosamine-6-phosphate [3]) was less than 1e-05 s⁻¹. For the same variant, the “self-cleavage kobs at 2500 uM GlcN6P” value (glucosamine-6-phosphate [4]) was less than 1e-05 s⁻¹ and the “self-cleavage kobs at 10000 uM GlcN6P” value (glucosamine-6-phosphate [2]) was less than 1e-05 s⁻¹.

A14G G29U A36G was tested, and the “self-cleavage kobs at 40 uM GlcN6P” value (glucosamine-6-phosphate [1]) was less than 1e-05 s⁻¹.

In the case of A6G A12U C61U, the “self-cleavage kobs at 40 uM GlcN6P” value (glucosamine-6-phosphate [1]) is reported as less than 1e-05 s⁻¹ and the “self-cleavage kobs at 10000 uM GlcN6P” value (glucosamine-6-phosphate [2]) is reported as less than 1e-05 s⁻¹.

With C8A A64U the “self-cleavage kobs at 40 uM GlcN6P” value (glucosamine-6-phosphate [1]) was less than 1e-05 s⁻¹, the “self-cleavage kobs at 160 uM GlcN6P” value (glucosamine-6-phosphate [5]) was less than 1e-05 s⁻¹ and the “self-cleavage kobs at 640 uM GlcN6P” value (glucosamine-6-phosphate [3]) was less than 1e-05 s⁻¹. For the same variant, the “self-cleavage kobs at 2500 uM GlcN6P” value (glucosamine-6-phosphate [4]) was less than 1e-05 s⁻¹ and the “self-cleavage kobs at 10000 uM GlcN6P” value (glucosamine-6-phosphate [2]) was less than 1e-05 s⁻¹.

C11A U45G was tested, and the “self-cleavage kobs at 40 uM GlcN6P” value (glucosamine-6-phosphate [1]) was less than 1e-05 s⁻¹, the “self-cleavage kobs at 160 uM GlcN6P” value (glucosamine-6-phosphate [5]) was less than 1e-05 s⁻¹ and the “self-cleavage kobs at 640 uM GlcN6P” value (glucosamine-6-phosphate [3]) was less than 1e-05 s⁻¹.

In the case of G7C A33G A53U A64G, the “self-cleavage kobs at 40 uM GlcN6P” value (glucosamine-6-phosphate [1]) is reported as less than 1e-05 s⁻¹ and the “self-cleavage kobs at 640 uM GlcN6P” value (glucosamine-6-phosphate [3]) is reported as less than 1e-05 s⁻¹.

G29U C71U was tested, and the “self-cleavage kobs at 40 uM GlcN6P” value (glucosamine-6-phosphate [1]) was 0.000132 ± 1.2e-05 s⁻¹, the “self-cleavage kobs at 160 uM GlcN6P” value (glucosamine-6-phosphate [5]) was 0.000298 ± 2.9e-05 s⁻¹ and the “self-cleavage kobs at 640 uM GlcN6P” value (glucosamine-6-phosphate [3]) was 0.000578 ± 0.0001 s⁻¹. The “self-cleavage kobs at 2500 uM GlcN6P” value (glucosamine-6-phosphate [4]) was 0.00226 ± 0.00052 s⁻¹ and the “self-cleavage kobs at 10000 uM GlcN6P” value (glucosamine-6-phosphate [2]) was 0.00363 ± 0.00043 s⁻¹.

In the case of U46A U57G, the “self-cleavage kobs at 40 uM GlcN6P” value (glucosamine-6-phosphate [1]) is reported as less than 1e-05 s⁻¹ and the “self-cleavage kobs at 160 uM GlcN6P” value (glucosamine-6-phosphate [5]) is reported as less than 1e-05 s⁻¹.

For G7U U30G, the “self-cleavage kobs at 40 uM GlcN6P” value (glucosamine-6-phosphate [1]) was less than 1e-05 s⁻¹, the “self-cleavage kobs at 160 uM GlcN6P” value (glucosamine-6-phosphate [5]) was less than 1e-05 s⁻¹ and the “self-cleavage kobs at 10000 uM GlcN6P” value (glucosamine-6-phosphate [2]) was less than 1e-05 s⁻¹.

G62U G63U C68G was tested, and the “self-cleavage kobs at 40 uM GlcN6P” value (glucosamine-6-phosphate [1]) was less than 1e-05 s⁻¹.

G7U A39G was tested, and the “self-cleavage kobs at 40 uM GlcN6P” value (glucosamine-6-phosphate [1]) was less than 1e-05 s⁻¹, the “self-cleavage kobs at 160 uM GlcN6P” value (glucosamine-6-phosphate [5]) was less than 1e-05 s⁻¹ and the “self-cleavage kobs at 640 uM GlcN6P” value (glucosamine-6-phosphate [3]) was less than 1e-05 s⁻¹. The “self-cleavage kobs at 2500 uM GlcN6P” value (glucosamine-6-phosphate [4]) was less than 1e-05 s⁻¹ and the “self-cleavage kobs at 10000 uM GlcN6P” value (glucosamine-6-phosphate [2]) was less than 1e-05 s⁻¹.

For A36C U69G, the “self-cleavage kobs at 40 uM GlcN6P” value (glucosamine-6-phosphate [1]) was 4.49e-05 ± 1.6e-05 s⁻¹, the “self-cleavage kobs at 160 uM GlcN6P” value (glucosamine-6-phosphate [5]) was 0.000114 ± 3.7e-05 s⁻¹ and the “self-cleavage kobs at 640 uM GlcN6P” value (glucosamine-6-phosphate [3]) was 0.000391 ± 9.8e-05 s⁻¹. For the same variant, the “self-cleavage kobs at 2500 uM GlcN6P” value (glucosamine-6-phosphate [4]) was 0.0001 ± 2e-05 s⁻¹ and the “self-cleavage kobs at 10000 uM GlcN6P” value (glucosamine-6-phosphate [2]) was 3.45e-05 ± 1e-05 s⁻¹.

For G51C A64U, the “self-cleavage kobs at 40 uM GlcN6P” value (glucosamine-6-phosphate [1]) was less than 1e-05 s⁻¹, the “self-cleavage kobs at 160 uM GlcN6P” value (glucosamine-6-phosphate [5]) was less than 1e-05 s⁻¹ and the “self-cleavage kobs at 640 uM GlcN6P” value (glucosamine-6-phosphate [3]) was less than 1e-05 s⁻¹. For the same variant, the “self-cleavage kobs at 10000 uM GlcN6P” value (glucosamine-6-phosphate [2]) was less than 1e-05 s⁻¹.

C16A G26A C68G was tested, and the “self-cleavage kobs at 40 uM GlcN6P” value (glucosamine-6-phosphate [1]) was 3.64e-05 ± 1.7e-05 s⁻¹ and the “self-cleavage kobs at 10000 uM GlcN6P” value (glucosamine-6-phosphate [2]) was 3.65e-05 ± 1.5e-05 s⁻¹.

C8A A15U was tested, and the “self-cleavage kobs at 40 uM GlcN6P” value (glucosamine-6-phosphate [1]) was less than 1e-05 s⁻¹, the “self-cleavage kobs at 160 uM GlcN6P” value (glucosamine-6-phosphate [5]) was less than 1e-05 s⁻¹ and the “self-cleavage kobs at 640 uM GlcN6P” value (glucosamine-6-phosphate [3]) was less than 1e-05 s⁻¹. For the same variant, the “self-cleavage kobs at 2500 uM GlcN6P” value (glucosamine-6-phosphate [4]) was less than 1e-05 s⁻¹ and the “self-cleavage kobs at 10000 uM GlcN6P” value (glucosamine-6-phosphate [2]) was less than 1e-05 s⁻¹.

U46G C61G was tested, and the “self-cleavage kobs at 40 uM GlcN6P” value (glucosamine-6-phosphate [1]) was less than 1e-05 s⁻¹, the “self-cleavage kobs at 160 uM GlcN6P” value (glucosamine-6-phosphate [5]) was less than 1e-05 s⁻¹ and the “self-cleavage kobs at 640 uM GlcN6P” value (glucosamine-6-phosphate [3]) was less than 1e-05 s⁻¹. For the same variant, the “self-cleavage kobs at 10000 uM GlcN6P” value (glucosamine-6-phosphate [2]) was less than 1e-05 s⁻¹.

U46C G51U was tested, and the “self-cleavage kobs at 40 uM GlcN6P” value (glucosamine-6-phosphate [1]) was less than 1e-05 s⁻¹, the “self-cleavage kobs at 160 uM GlcN6P” value (glucosamine-6-phosphate [5]) was less than 1e-05 s⁻¹ and the “self-cleavage kobs at 640 uM GlcN6P” value (glucosamine-6-phosphate [3]) was less than 1e-05 s⁻¹. For the same variant, the “self-cleavage kobs at 2500 uM GlcN6P” value (glucosamine-6-phosphate [4]) was less than 1e-05 s⁻¹.
